This note sets out measurements from paper PMC4180030.

This experiment has as its target dimeric oxygen-evolving photosystem II complex isolated from WT T. elongatus (Thermosynechococcus elongatus (endogenous in T. elongatus BP1)) (UniProt P0A444). The experiment in a line: co-purification by two-step anion-exchange chromatography, immunoblotting; PSII complexes isolated from WT T. elongatus membranes (Kern et al. 2005); semi-quantitative immunoblotting of thylakoids and PSII against recombinant protein standards. (In general: Immunoblotting shows a protein as a band on a membrane.)

B1: CyanoQ (Tll2057) from Thermosynechococcus elongatus (natural protein)
chain: CGGPSATTPPPPTYSELQITRIQDYLRDIEKNAERFADLEVSVAKGDWQEARNIMRGPLGEMLMDMRALNRNLLAKDQPTPTALTRALTDDFLKIDQGADLDSVTVAQEGFREAEADFKAYLNSLPELS
As to B1, the stoichiometry N (CyanoQ per PSII monomer) came out at 0.4.
